In the supplement of paper PMC9112550, “Optimization of the antimicrobial peptide Bac7 by deep mutational scanning” (BMC Biology, 2022):

system: Escherichia coli TOP10; experiment: shrunken log2 fold change of peptide-encoding DNA abundance (4.5 h post-induction vs induction); higher = less antimicrobial activity (less host growth inhibition); conditions: time post-induction: 4.5 h; library: site-saturation at positions 5, 18, 19, 20
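Further: peptides expressed intracellularly from a pBAD plasmid library in pooled LB shake-flask culture, induced with 0.3% L-arabinose, DNA abundance read by NGS, three biological replicates, DESeq2 with apeglm shrinkage.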

RRIRWRPPRLPRPRPRPWTDPRP and RRIRHRPPRLPRPRPRPKAAPRP are within 0.2 log units of each other in “shrunken log2 fold change” value: -0.0932 for the first, 0.0902 for the second.

Compared with RRIRKRPPRLPRPRPRPKMTPRP, RRIRARPPRLPRPRPRPHTMPRP is lower in “shrunken log2 fold change” value: 0.187 for the first, -0.0952 for the second.

Compared with RRIRFRPPRLPRPRPRPSIWPRP, RRIRPRPPRLPRPRPRPIFAPRP is higher in “shrunken log2 fold change” value: -0.111 for the first, 0.33 for the second.

RRIRGRPPRLPRPRPRPSDWPRP and RRIRNRPPRLPRPRPRPWPSPRP are within 0.2 log units of each other in “shrunken log2 fold change” value: 0.251 for the first, 0.0756 for the second.

Compared with RRIRGRPPRLPRPRPRPPLGPRP, RRIRSRPPRLPRPRPRPLITPRP is lower in “shrunken log2 fold change” value: 0.844 for the first, -0.012 for the second.

Going from RRIRCRPPRLPRPRPRPREHPRP to RRIRHRPPRLPRPRPRPVSEPRP, the “shrunken log2 fold change” value falls from 0.161 to -0.254.

RRIRGRPPRLPRPRPRPGINPRP and RRIRMRPPRLPRPRPRPVTRPRP are within 0.2 log units of each other in “shrunken log2 fold change” value: 0.499 for the first, 0.494 for the second.

Going from RRIRVRPPRLPRPRPRPVHHPRP to RRIRARPPRLPRPRPRPEGEPRP, the “shrunken log2 fold change” value rises from -0.199 to 1.39.

RRIRRRPPRLPRPRPRPMREPRP and RRIRRRPPRLPRPRPRPVTDPRP are within 0.2 log units of each other in “shrunken log2 fold change” value: 0.0493 for the first, 0.0723 for the second.

RRIRMRPPRLPRPRPRPDTRPRP and RRIRQRPPRLPRPRPRPQVCPRP are within 0.2 log units of each other in “shrunken log2 fold change” value: -0.0141 for the first, 0.0103 for the second.

Going from RRIRHRPPRLPRPRPRPQDNPRP to RRIRSRPPRLPRPRPRPQHNPRP, the “shrunken log2 fold change” value falls from -0.144 to -0.628.

Compared with RRIRYRPPRLPRPRPRPISQPRP, RRIRHRPPRLPRPRPRPQMQPRP is higher in “shrunken log2 fold change” value: -0.299 for the first, -0.0236 for the second.

Going from RRIRERPPRLPRPRPRPENYPRP to RRIRPRPPRLPRPRPRPWRMPRP, the “shrunken log2 fold change” value falls from 2 to 0.217.

Compared with RRIRARPPRLPRPRPRPKPVPRP, RRIRFRPPRLPRPRPRPFNRPRP is lower in “shrunken log2 fold change” value: 0.882 for the first, 0.0118 for the second.

Compared with RRIRRRPPRLPRPRPRPPKEPRP, RRIRSRPPRLPRPRPRPWKFPRP is lower in “shrunken log2 fold change” value: 0.0931 for the first, -0.176 for the second.

RRIRFRPPRLPRPRPRPVKSPRP and RRIRTRPPRLPRPRPRPSTKPRP are within 0.2 log units of each other in “shrunken log2 fold change” value: -0.159 for the first, -0.145 for the second.

First: RRIRKRPPRLPRPRPRPAHSPRP
Second: RRIRGRPPRLPRPRPRPHENPRP
The “shrunken log2 fold change” value of the first is lower: 0.0695 for the first, 0.446 for the second.

Compared with RRIRIRPPRLPRPRPRPFWDPRP, RRIRLRPPRLPRPRPRPHRKPRP is lower in “shrunken log2 fold change” value: -0.0885 for the first, -0.295 for the second.

RRIRTRPPRLPRPRPRPMHPPRP and RRIRERPPRLPRPRPRPWRCPRP are within 0.2 log units of each other in “shrunken log2 fold change” value: 0.0402 for the first, -0.0332 for the second.

Compared with RRIRKRPPRLPRPRPRPVCMPRP, RRIRWRPPRLPRPRPRPLPSPRP is higher in “shrunken log2 fold change” value: 0.0492 for the first, 0.515 for the second.

Compared with RRIRKRPPRLPRPRPRPPNTPRP, RRIRQRPPRLPRPRPRPYHNPRP is lower in “shrunken log2 fold change” value: 0.408 for the first, -0.945 for the second.

Compared with RRIRLRPPRLPRPRPRPWYNPRP, RRIRYRPPRLPRPRPRPQRLPRP is lower in “shrunken log2 fold change” value: 0.111 for the first, -0.131 for the second.

First: RRIRARPPRLPRPRPRPTDTPRP
Second: RRIRWRPPRLPRPRPRPRRRPRP
The “shrunken log2 fold change” value of the first is lower: 0.535 for the first, 1.3 for the second.

First: RRIRPRPPRLPRPRPRPLNPPRP
Second: RRIRFRPPRLPRPRPRPFMEPRP
The “shrunken log2 fold change” value of the first is higher: -0.131 for the first, -0.728 for the second.

RRIRGRPPRLPRPRPRPIMIPRP and RRIRKRPPRLPRPRPRPHKDPRP are within 0.2 log units of each other in “shrunken log2 fold change” value: 0.0216 for the first, -0.113 for the second.

Compared with RRIRNRPPRLPRPRPRPQYQPRP, RRIRSRPPRLPRPRPRPMTPPRP is higher in “shrunken log2 fold change” value: -0.317 for the first, 0.13 for the second.

Going from RRIRARPPRLPRPRPRPEGPPRP to RRIRDRPPRLPRPRPRPDMFPRP, the “shrunken log2 fold change” value falls from 0.577 to 0.0667.

RRIRTRPPRLPRPRPRPNTCPRP and RRIRPRPPRLPRPRPRPNPYPRP are within 0.2 log units of each other in “shrunken log2 fold change” value: -0.395 for the first, -0.465 for the second.

RRIRHRPPRLPRPRPRPIHHPRP and RRIRLRPPRLPRPRPRPNRVPRP are within 0.2 log units of each other in “shrunken log2 fold change” value: -0.216 for the first, -0.0939 for the second.

Compared with RRIRLRPPRLPRPRPRPTVHPRP, RRIRCRPPRLPRPRPRPWDRPRP is lower in “shrunken log2 fold change” value: -0.131 for the first, -0.608 for the second.

First: RRIRPRPPRLPRPRPRPQAAPRP
Second: RRIRHRPPRLPRPRPRPHCHPRP
The “shrunken log2 fold change” value of the first is higher: 0.116 for the first, -0.551 for the second.

First: RRIRYRPPRLPRPRPRPNMPPRP
Second: RRIRPRPPRLPRPRPRPVRDPRP
The “shrunken log2 fold change” value of the first is lower: -0.304 for the first, 0.146 for the second.

Compared with RRIRHRPPRLPRPRPRPPYHPRP, RRIRARPPRLPRPRPRPEHAPRP is higher in “shrunken log2 fold change” value: -0.495 for the first, 0.564 for the second.

First: RRIRCRPPRLPRPRPRPWPNPRP
Second: RRIRCRPPRLPRPRPRPETMPRP
The “shrunken log2 fold change” value of the first is lower: -0.279 for the first, -0.0663 for the second.

First: RRIRNRPPRLPRPRPRPSFCPRP
Second: RRIRCRPPRLPRPRPRPAGDPRP
The “shrunken log2 fold change” value of the first is lower: -0.548 for the first, 0.176 for the second.

Going from RRIRRRPPRLPRPRPRPHEFPRP to RRIRVRPPRLPRPRPRPTNKPRP, the “shrunken log2 fold change” value falls from 0.0543 to -0.254.

Compared with RRIRTRPPRLPRPRPRPEQYPRP, RRIRSRPPRLPRPRPRPYIYPRP is lower in “shrunken log2 fold change” value: -0.0335 for the first, -0.778 for the second.

First: RRIRRRPPRLPRPRPRPWNLPRP
Second: RRIRARPPRLPRPRPRPDHCPRP
The “shrunken log2 fold change” value of the first is lower: -0.269 for the first, 0.063 for the second.

RRIRIRPPRLPRPRPRPPQEPRP and RRIRLRPPRLPRPRPRPMSPPRP are within 0.2 log units of each other in “shrunken log2 fold change” value: -0.0258 for the first, 0.0855 for the second.

Compared with RRIRMRPPRLPRPRPRPFNNPRP, RRIRFRPPRLPRPRPRPYMKPRP is lower in “shrunken log2 fold change” value: -0.296 for the first, -0.858 for the second.

Compared with RRIRIRPPRLPRPRPRPYYNPRP, RRIRCRPPRLPRPRPRPFQNPRP is higher in “shrunken log2 fold change” value: -0.679 for the first, -0.0078 for the second.

RRIRFRPPRLPRPRPRPRDMPRP and RRIRVRPPRLPRPRPRPMHNPRP are within 0.2 log units of each other in “shrunken log2 fold change” value: -0.128 for the first, -0.268 for the second.

RRIRKRPPRLPRPRPRPGKFPRP and RRIRWRPPRLPRPRPRPQMYPRP are within 0.2 log units of each other in “shrunken log2 fold change” value: -0.174 for the first, -0.168 for the second.

First: RRIRKRPPRLPRPRPRPFMQPRP
Second: RRIRMRPPRLPRPRPRPSAIPRP
The “shrunken log2 fold change” value of the first is lower: -0.0285 for the first, 0.476 for the second.

RRIRMRPPRLPRPRPRPHAQPRP and RRIRLRPPRLPRPRPRPRGFPRP are within 0.2 log units of each other in “shrunken log2 fold change” value: -0.015 for the first, 0.124 for the second.

First: RRIRDRPPRLPRPRPRPIYDPRP
Second: RRIRVRPPRLPRPRPRPRGHPRP
The “shrunken log2 fold change” value of the first is lower: -0.0423 for the first, 0.175 for the second.

RRIRQRPPRLPRPRPRPMLDPRP and RRIRLRPPRLPRPRPRPQNMPRP are within 0.2 log units of each other in “shrunken log2 fold change” value: -0.206 for the first, -0.232 for the second.

Compared with RRIRVRPPRLPRPRPRPLCNPRP, RRIRVRPPRLPRPRPRPNVYPRP is lower in “shrunken log2 fold change” value: -0.139 for the first, -0.787 for the second.

Compared with RRIRYRPPRLPRPRPRPSHSPRP, RRIRLRPPRLPRPRPRPQESPRP is higher in “shrunken log2 fold change” value: -0.0971 for the first, 0.133 for the second.

RRIRFRPPRLPRPRPRPDRNPRP and RRIRFRPPRLPRPRPRPLYPPRP are within 0.2 log units of each other in “shrunken log2 fold change” value: -0.182 for the first, -0.205 for the second.

RRIRMRPPRLPRPRPRPAYQPRP and RRIRSRPPRLPRPRPRPDRMPRP are within 0.2 log units of each other in “shrunken log2 fold change” value: -0.233 for the first, -0.129 for the second.

First: RRIRNRPPRLPRPRPRPDMKPRP
Second: RRIRMRPPRLPRPRPRPSKNPRP
The “shrunken log2 fold change” value of the first is lower: -0.423 for the first, 0.277 for the second.

Compared with RRIRSRPPRLPRPRPRPLWAPRP, RRIRWRPPRLPRPRPRPQYHPRP is lower in “shrunken log2 fold change” value: 0.206 for the first, -0.505 for the second.

Going from RRIRLRPPRLPRPRPRPVRCPRP to RRIRVRPPRLPRPRPRPASWPRP, the “shrunken log2 fold change” value rises from 0.0127 to 0.294.

In the case of RRIRARPPRLPRPRPRPCSFPRP, the “shrunken log2 fold change” value is reported as 0.134.
